Test results as given in US20090028842A1, “Dekkera/Brettanomyces Cytosine Deaminases And Their Use” (ZGene A/S, priority 2005, published 2009).

Legend:
[1] = type: physicochemical; settings: storage at 50° C., his-tagged enzyme
Protocol: Purified and his-tagged CD from D. bruxellensis and S. cerevisiae CD were assayed after different periods of storage at 50° C. and 37° C. (FIGS. 8a and 8b). Indeed, D. bruxellensis CD was extremely stable at 50° C. when compared to S. cerevisiae CD which lost all activity after only 4 minutes. Half life for D. bruxellensis CD at 50° C. was app. 3 hours (FIG. 8a). […] It should be observed that the temperature stability of the proteins without his-tags could be different.

[2] = CD activities in crude extracts of BL21 cells transformed with CD genes; type: biochemical; settings: cytosine 500 uM, triplicates, mean with standard deviation
Protocol: Bacteria or cell lines were grown as described, harvested and stored at −80° C. until activity testing. Cells were submitted to brief sonication in extraction buffer (50 mM Tris/HCl pH 7.5, 1 mM DTT, 10% (v/v) glycerol, 1% (v/v) Triton X-100, protease inhibitor cocktail Complete™ from Roche Diagnostics). Cytosine deaminase activities were determined spectrophotometrically by monitoring the absorbance decrease at 286 nm (Δε286=−0.68 mM^−1 cm^−1) resulting from the deamination of cytosine to uracil. Assays were initiated by the addition of CD to 0.5 mM cytosine in 50 mM Tris-HCL at pH 7.5 and 30° C. and followed for 150 sec. One unit of CD was defined to catalyze the formation of 1 μmol of uracil per min. Dual beam recording ZEIS spectrophotometer, thermostated at 30° C., was used for the assays.
To better characterize D. bruxellensis CD over expression of the protein in bacteria was done. In addition to D. bruxellensis CD, homologous genes from S. cerevisiae was also amplified from total genomic DNA and cloned as histidin tagged construct into pET100 bacterial expression vector. The plasmids were transformed into E. coli BL21 strain and protein expression was induced by IPTG for 8 hours. After harvesting, cell extracts were spectrophotometrically measured for cytosine and 5-FC deamination. All yeast CDs tested were functional when expressed in bacteria (Table 2).

[3] = CD activities with purified his-tagged proteins; type: biochemical; settings: purified his-tagged protein, 37° C., cytosine 500 μM, triplicates, mean with standard deviation
Protocol: For recombinant protein expression, E. coli cells were grown to a density of A600 nm=0.5-0.6 in LB medium supplemented with 100 μg/ml ampicillin, and the expression was induced with 10 μM IPTG for 8 h at 25° C. The cells were harvested by centrifugation, and the pellet was resuspended in 25 ml ice-cold binding buffer A […] (50 mM sodium phosphate pH 8.0; 300 mM NaCl; 10% glycerol; 25 mM imidazole) containing protease inhibitor cocktail (Complete™-EDTA free from Roche Diagnostics). The cells were homogenized using a French Press, subjected to centrifugation at 12,000×g for 30 minutes (4° C.), filtered through a […] Whatman glass microfiber filter and a […] cellulose acetate filter, and loaded onto a 5 ml Ni^2+-NTA column (Qiagen). […]
Bacteria or cell lines were grown as described, harvested and stored at −80° C. until activity testing. […] Cytosine deaminase activities were determined spectrophotometrically by monitoring the absorbance decrease at 286 nm (Δε286=−0.68 mM^−1 cm^−1) resulting from the deamination of cytosine to uracil. […]
To characterize the substrate specificities of yeast CDs, purified proteins were measured at 37° C. and fixed cytosine concentration and assays was performed as described in Example 1 (Enzyme assays) (Table 3).

B1: Sc CD (PZG738): cytosine deaminase from Saccharomyces cerevisiae (FCY1 gene), recombinant his-tagged protein in pET100 (protein, UniProt Q12178 1-158, looked up)
Cytosine deaminase: MVTGGMASKWDQKGMDIAYEEAALGYKEGGVPIGGCLINNKDGSVLGRGHNMRFQKGSATLHGEISTLENCGRLEGKVYKDTTLYTTLSPCDMCTGAIIMYGIPRCVVGENVNFKSKGEKYLQTRGHEVVVVDDERCKKIMKQFIDERPQDWFEDIGE
modifications: His tag
notes: cytosine deaminase from Saccharomyces cerevisiae (FCY1 gene), recombinant his-tagged protein in pET100
Time after which all activity was lost [1]: 4 min
CD activity, Cytosine [2]: 40.69 ± 0.56
CD activity, Cytosine [3]: 888.4 ± 4.8 U/mg/min
